Laboratory results reported in patent publication US20250304666A1 (ALCHEMAB THERAPEUTICS, published 2025).
Substitutions are numbered along the chain they refer to.

T1: reduced CFH (Homo sapiens (Human), UniProt P08603 860-1231, limits assumed)
T1 construct: also called CFH (reduced)
T1 sequence: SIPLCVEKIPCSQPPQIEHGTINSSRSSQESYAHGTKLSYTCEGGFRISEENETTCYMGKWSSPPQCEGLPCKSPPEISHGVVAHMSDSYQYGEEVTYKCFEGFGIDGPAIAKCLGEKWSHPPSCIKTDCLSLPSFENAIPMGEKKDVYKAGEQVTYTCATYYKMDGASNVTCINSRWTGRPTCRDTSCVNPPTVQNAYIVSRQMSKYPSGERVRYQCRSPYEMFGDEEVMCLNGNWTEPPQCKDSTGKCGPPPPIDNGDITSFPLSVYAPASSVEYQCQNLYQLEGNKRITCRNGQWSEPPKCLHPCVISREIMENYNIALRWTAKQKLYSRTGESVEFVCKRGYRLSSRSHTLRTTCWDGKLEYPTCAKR

T2: reduced CFHR3 (UniProt Q02985 19-330, limits assumed)
T2 sequence (looked up): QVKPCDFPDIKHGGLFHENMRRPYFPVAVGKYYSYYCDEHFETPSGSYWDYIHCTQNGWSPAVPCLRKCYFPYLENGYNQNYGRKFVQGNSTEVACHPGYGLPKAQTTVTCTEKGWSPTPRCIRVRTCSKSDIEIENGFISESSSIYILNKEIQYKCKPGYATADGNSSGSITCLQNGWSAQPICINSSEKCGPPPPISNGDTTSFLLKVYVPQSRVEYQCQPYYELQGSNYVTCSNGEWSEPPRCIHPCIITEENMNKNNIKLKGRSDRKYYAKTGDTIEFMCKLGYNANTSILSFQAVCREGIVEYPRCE

T3: reduced CFHR5 (UniProt Q9BXR6 19-569, limits assumed)
T3 sequence (looked up): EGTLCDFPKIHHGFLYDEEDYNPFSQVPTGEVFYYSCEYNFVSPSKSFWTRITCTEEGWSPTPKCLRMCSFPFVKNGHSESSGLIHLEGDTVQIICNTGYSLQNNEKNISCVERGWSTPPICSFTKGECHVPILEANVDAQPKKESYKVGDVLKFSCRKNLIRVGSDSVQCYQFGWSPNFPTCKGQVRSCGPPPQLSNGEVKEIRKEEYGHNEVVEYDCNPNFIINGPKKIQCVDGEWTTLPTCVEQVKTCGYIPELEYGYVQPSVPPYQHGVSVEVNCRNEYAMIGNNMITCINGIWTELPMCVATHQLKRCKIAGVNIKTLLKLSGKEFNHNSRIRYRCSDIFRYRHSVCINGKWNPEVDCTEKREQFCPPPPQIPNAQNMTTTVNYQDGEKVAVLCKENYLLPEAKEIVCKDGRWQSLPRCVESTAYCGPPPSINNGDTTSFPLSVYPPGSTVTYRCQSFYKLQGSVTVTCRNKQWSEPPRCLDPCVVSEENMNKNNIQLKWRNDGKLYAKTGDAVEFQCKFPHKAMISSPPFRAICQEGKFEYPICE

B1: ATL4717 (antibody, human IgG1, kappa, V domains shown)
VH: QVQLVESGGGMVQPGRSLRLSCAASGFTFSIYGMHWVRQAPGRGLEWVAVMSFDGKTKYYADSVKGRFTISRDNSKNTLYLQMNSLRRVDTAVYYCAKGGATAAVFDSWGQGTLVTVSS
VL: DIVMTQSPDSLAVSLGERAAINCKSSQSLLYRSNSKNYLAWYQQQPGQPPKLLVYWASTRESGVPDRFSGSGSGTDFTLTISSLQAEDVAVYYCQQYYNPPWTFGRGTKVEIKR
notes: Human IgG1; also called ATL0004717; ATL04717
B2: ATL5170 (antibody, human IgG1, kappa, V domains shown)
VH: B1 VH with M11V, I31N, R43K, M51T, R88A, V89E, F106L
VL: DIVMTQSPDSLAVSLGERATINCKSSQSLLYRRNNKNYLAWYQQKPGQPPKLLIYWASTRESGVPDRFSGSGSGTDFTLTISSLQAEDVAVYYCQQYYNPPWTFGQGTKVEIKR
notes: IgG1; also called ATL_0005170

Key:
reduced CFH [1] = biological target: T1, reduced CFH; assay: ELISA on reduced CFH after heating the mAb (70 C, 1 h, as Figure 16)
reduced CFHR3 [2] = biological target: T2, reduced CFHR3; assay: ELISA, reduced antigen
reduced CFH [3] = biological target: T1, reduced CFH; assay: ELISA, reduced antigen
reduced CFHR5 [4] = biological target: T3, reduced CFHR5; assay: ELISA, reduced antigen
reduced CFH [5] = biological target: T1, reduced CFH; assay: direct ELISA on reduced CFH
[6] = biological target: T4, immobilised biotinylated full-length CFH (reduced) (Homo sapiens (Human), UniProt P08603 19-1231, biotinylated; reduced with 20 mM dithiothreitol); assay: BLI, biotinylated reduced full-length CFH on streptavidin tips, 1:1 global fit
T4 construct: Purified endogenous full-length CFH immobilised by biotin on streptavidin BLI sensors; also called immobilised CFH; surface immobilised CFH
Experimental: (§1) Biolayer interferometry (BLI, Octet 96Red) was used to measure binding kinetics of the interactions between anti-CFH antibodies and CFH. The CFH used for kinetics measurements was purified endogenous CFH was biotinylated and reduced with 20 mM dithiothreitol (DTT). An irrelevant protein was treated in the same way as a negative control reference. The CFH or irrelevant control ligands were each immobilised via the conjugated biotin onto a set of streptavidin (SA) sensor tips. Sensors were dipped into reference kinetics buffer (Phosphate buffered saline (PBS), pH 7.4, 0.05% Tween-20, 2% w/v not fat milk powder) to achieve a steady baseline. Association was measured over 300 s by dipping the sensors into an analyte concentration series of anti-CFH antibody (33.3-2.08 nM in kinetics buffer) as well as a no analyte control (kinetics buffer only). Dissociation was measured over 1500 s by dipping the sensors into kinetics buffer only. Baseline, association and dissociation steps were all measured with sensors shaking at 800 rpm and at a temperature of 23° C. Data was analysed with Data Analysis HT 11.1.0.25 software. Data from reference sensors and analyte control were subtracted. Data was corrected by aligning y-axis to average of baseline 5 s before association, inter step correction aligned to start of baseline and using Savitzky-Golay filtering. Data was fit to a 1:1 model using association and dissociation phases and kinetic rate constants are reported for the global fit where each curve R2 is >0.9.

reduced CFHR3 [7] = biological target: T2, reduced CFHR3; assay: ELISA on reduced CFHR3
reduced CFHR5 [8] = biological target: T3, reduced CFHR5; assay: ELISA on reduced CFHR5
[9] = biological target: T4, immobilised biotinylated full-length …; assay: BLI (Octet), biotinylated reduced CFH on streptavidin sensors, antibody 33.3-2.08 nM as analyte, 1:1 global fit; lower end of the printed KD range
Experimental: as §1, with “Data was fit to a 1:1 model using association and dissociation phases and kinetic rate constants are reported for the global fit where each curve R2 is >0.9.” left out

Binder	Harsh Heat challenge ELISA value (reduced CFH [1])	binding result (reduced CFHR3 [2])	fold change vs isotype at 1 ug/ml (reduced CFHR3 [2]) [fold]	fold change vs isotype at 1 ug/ml (reduced CFH [3]) [fold]	binding result (reduced CFHR5 [4])	fold change vs isotype at 1 ug/ml (reduced CFHR5 [4]) [fold]	EC50 (read off the curve) (reduced CFH [5]) [nM]	Kd [6] [nM]	koff [6] [s⁻¹]	kon [6] [M⁻¹ s⁻¹]	binding result (reduced CFHR3 [7])	binding result (reduced CFHR5 [8])	Kd [9] [nM]
B1	0.04	no binding (tested: 1 ug/ml)	0.9	17.6	no binding (tested: 1 ug/ml)	1	~0.1						
B2	0.49		1	18.1		1.1		0.85	0.000348	409000	no binding (tested: 100 ug/ml)	no binding (tested: 100 ug/ml)	0.402 to 1.46
